# US20090214508A1
# Target: FLAG-tagged R2FasL (pFLAG-FlkFasL; FlkFasL with an N-terminal FLAG epitope tag) (mouse; human) (UniProt P35918)
# Test: cell-based or functional assay
# FLAG-tagged R2FasL (pFLAG-FlkFasL; FlkFasL with an N-terminal FLAG epitope tag) (mouse; human), sequence (P35918 other isoform, or with tags, fused parts or gaps): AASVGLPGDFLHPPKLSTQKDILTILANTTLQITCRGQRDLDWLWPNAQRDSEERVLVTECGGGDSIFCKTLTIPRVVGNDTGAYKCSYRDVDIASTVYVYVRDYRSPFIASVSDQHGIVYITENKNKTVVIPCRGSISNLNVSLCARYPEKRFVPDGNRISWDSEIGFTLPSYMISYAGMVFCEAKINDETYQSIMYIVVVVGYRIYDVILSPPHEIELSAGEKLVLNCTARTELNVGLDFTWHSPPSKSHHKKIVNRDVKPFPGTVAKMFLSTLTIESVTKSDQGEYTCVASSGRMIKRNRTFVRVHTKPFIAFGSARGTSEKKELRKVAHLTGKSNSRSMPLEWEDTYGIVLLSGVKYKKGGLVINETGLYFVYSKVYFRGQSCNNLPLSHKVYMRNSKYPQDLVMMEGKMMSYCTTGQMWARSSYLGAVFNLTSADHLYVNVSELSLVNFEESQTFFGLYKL
substance,measurement,value
recombinant human VEGF-165 (from UniProt P15692 27-191) (ligand),"ED50 (viability of Jurkat E6.1 cells, resazurin assay)",0.02 to 0.2 nM
